Tests used:
Experiment in all cases: purified protein
Assay type in all cases: biochemical, Trichomonas vaginalis
Details in all cases: NADPH co-substrate, 100 mM potassium phosphate pH 5.5, 37 °C
[1] = system: Cc1cc2nc3c(=O)[nH]c(=O)nc-3n(C[C@H](O)[C@H](O)[C@H](O)CO)c2cc1C
[2] = system: Cc1cc2nc3c(=O)[nH]c(=O)nc-3n(C[C@H](O)[C@H](O)[C@H](O)COP(=O)(O)O)c2cc1C
[3] = system: Cc1cc2nc3c(=O)[nH]c(=O)nc-3n(C[C@H](O)[C@H](O)[C@H](O)COP(=O)(O)OP(=O)(O)OC[C@H]3O[C@@H](n4cnc5c(N)ncnc54)[C@H](O)[C@@H]3O)c2cc1C

Row | Substance | Km [1] [µM] | Km [2] [µM] | Km [3] [µM]
1 | Flavin reductase 5 (FR5) (Trichomonas vaginalis G3) | 94.4 ± 11.5 | 186.9 ± 30.3 | 267.4 ± 21.6
2 | Flavin reductase 1 (FR1) (Trichomonas vaginalis G3) |  | 10 ± 1.4 | 16.5 ± 2.5
3 | Flavin reductase 6 (FR6) (Trichomonas vaginalis G3) | 97.5 ± 28.8 | 160 ± 23.9 | 192.1 ± 12.2
